Results as given in US12551573B2, “Compositions and methods for the targeting of PCSK9” (Scribe Therapeutics Inc., priority 2022, dated 2026).
Where two headings read alike, the source gives them in different places.

Tested on: HBEGF locus
Type: cell-based, human
[1] = repressor domain in dXR, repression of the HBEGF gene, abundance of domain in library after vs before diphtheria toxin selection
[2] = high-throughput screen of dXR repression of the HBEGF gene, change in abundance of each domain in the library before and after diphtheria toxin selection
[3] = high-throughput screen of dXR repression of the HBEGF gene, abundance of each domain in the library before and after diphtheria toxin selection, HEK293T cells

Molecule | Log2 (fold change) [1] | also measured
DOMAIN_11097 (protein, listed as Mandrillus leucophaeus) KEASVAFRDVAVDFTQEEWRLLSPAQRTLHREVMLETYNHLVSLEIPSSKPKLIAQLERGEEPWREERKCSLDLCPESKPE | 3.239 | 
DOMAIN_11202 (protein, Nomascus leucogenys) RQAFLAFGDVTVDFTQKEWRLLSPAQRALYREVTLENYSHLVSLGILHSKPELIRRLEQGEAPWGEERRRRPGPCAGIYAE | 3.5851 | 
DOMAIN_13331 (protein, listed as Macaca fascicularis) FQGSISFKDVTVGFTQEEWQHLDPSQRALYRDVMLENYSNLVSVGYCVHKPEVISRLEQGEEPWRLEEEFPSQSFPVWTAD |  | Log2 (fold change) [2]: 3.5154
DOMAIN_11307 (protein, listed as Mandrillus leucophaeus) MAFEDVAVYFSQEEWGLLDTAQRALYRRVMLDNFALVASLGLSTSRPRVVIQLERGEEPWVPSRTDTILSRNTYRRRNPGS | 3.6383 | 
DOMAIN_11312 (protein, listed as Sus scrofa) ALGSVTFRDVAVFFSQDEWLHLDSAQKTLYQEVMLENYSTLVSLGIPFSMPKVICQLQQGEDPCMVEGEALRDPCLDFKTW | 3.8532 | 
DOMAIN_11314 (protein, listed as Sus scrofa) VTFEDVALYFSRDEWRLLDEAQRRLYHDVMLQNFSLISSLGCCCGAEDAESPFQPSMFRDVSQARTLKAASLSQKNHPCEK | 2.9575 | 
DOMAIN_11321 (protein, Nomascus leucogenys) GKELLSFEDVAMYFTREEWGHLNLGQKDLYRDVMLENYRNMVLLGFQFPKPEVICQLENWDEQWILDLPRAGNRKASGSAC | 2.9718 | 
DOMAIN_11359 (protein, listed as Sus scrofa) AQGQVTFEDVAVCFSQEEWGLLDETQRLLYRSVMLETFSLMASLGLTSSRTHDISQLERWGEPFLSASGAMRATRPTGCWH | 3.1036 | 
DOMAIN_13539 (protein, listed as Gorilla sp.) CYQDSVTFDDVAVDFTQEEWTLLDSTQRSLYSDVMLENYKNLATVGGQIIKPSLISWLEQEESRTVQGGVLRGRKTQWRGT |  | Log2 (fold change) [2]: 3.4924
DOMAIN_11581 (protein, listed as Equus caballus) LQVSVSFEDVTVDFSREEWQHLDPAQRRLYRDVTLENYSHLCSVGYQVPKPEVIFKLEQGEGPWMLEGEAPHQSCSDDDIG | 3.1882 | 
DOMAIN_11796 (protein, listed as Sus scrofa) FRGPVTFKDITVEFTQEEWQLLDNAQRTLYREVMQENYHHLISVGYCVNKPNAVFKLKQGKEPWILEVEFPRRNNPEDLWN | 2.2811 | 
DOMAIN_11908 (protein, listed as Canis lupus) CEGSVSFEDVTMDFSREEWQQLDPAQRCLYQDVMLEIYSHLLFVGYNIPNPEIISRMEKGEEPWMREIQLPHQRHRERAFG | 2.894 | 
DOMAIN_11944 (protein, listed as Bos indicus) PQESVTFEDVAVNFSHEEWQCLTHAQRHLYKDVMLENYGNMVSLGFSFSKPPLISRLEQGTEPYVQDRQDWEFLSCSYPVS | 3.2762 | 
DOMAIN_11988 (protein, Muntiacus muntjak) MAFEDVAVHFSQEEWGLLDTAQRSLYRRVMLENFALLASLGLSVSRPHVVTQLERGEEPWVLSGVDVTLPQDAQRRPRRGS | 3.5916 | 
DOMAIN_12057 (protein, Muntiacus muntjak) LLESVTFGDVAVVFSRDEWLHLDAAQRSLYREVMLENYSALVSLGIPLSIPKLICQLQQGEDPCMVEREIPQDVCLGFKTW | 2.0631 | 
DOMAIN_12114 (protein, listed as Neophocaena asiaeorientalis) VQASLSFEDVAVRFTWEEWQLLDPSQKDLYRNVMLENYCNLVSVGYQTPKPDSLFQLEQGEPPWRVEGAGQSQTCPEEIWE | 3.3227 | 
DOMAIN_16688 (protein, Lipotes vexillifer) SQEQVSFKDVCVDFTREEWYLLDPAQKILYRDVILENYSHLVSVGNCITKPEVIFKIEQGEEPWILEERFPKQCCSERNWK |  | Log2 (fold change) [2]: 3.5601
DOMAIN_12206 (protein, listed as Bos mutus) QEQVSFKDVCVDFTQEEWYLLDPAQKILYRDVILENYSHLVSVGNCITKPEVIFKIEQGEEPWILEERFPKQWHSGKSYKY | 2.9101 | 
DOMAIN_12231 (protein, Nomascus leucogenys) PQESVAFEDVAVYFTAKEWDIMVPAERALYRDVMLENYEAVAFVVPPTSKPALVSHLEQGKESCFTRPQGVLCRNDWRAGL | 2.6703 | 

Molecule | Log2 (fold change) [1] | also measured
DOMAIN_12285 (protein, listed as Gorilla sp.) EPGAVSFADVAVYFCREEWGCLRPAQRTLYRDVMRETYGHLSALGIGGKKPALISWVEEEAELWGPAAQDPEVAKCPTQTD | 2.2573 | 
DOMAIN_17317 (protein, listed as Otolemur garnettii) SQASVSFKDVNVEFTQDEWQQMGPAQRNLYRDVMLENYSNLVSVGYCIFKPKVIFRLEQGEEPWSSEEEFSSQRRPKNYRD |  | Log2 (fold change) [2]: 3.4551
DOMAIN_12550 (protein, listed as Ailuropoda melanoleuca) SDEAFSFEDLSVDFTQKEWQLLNPGQKDLYKDVMLENYSSLVSLGYEIMKPDVIFKLEQGEEPWIGDGEVPSSGCPADMSY | 3.0229 | 
DOMAIN_12590 (protein, listed as Bos indicus) AQEPVTFNDVAVDFTQEEWGQLDLVQRTLYRDVMLETYGHLLSVGNQITKPEVISLLEQGEEPWSMEPAYPLQGTCPAPEI | 2.5531 | 
DOMAIN_12755 (protein, listed as Oryctolagus cuniculus) SLGPVSFKDVAVGFTQEEWRQLEPAQRRTYREVMLENYSHLVAVGCHFIKPDVITKLERGEEPWIEGGFLPQGCADEVWQA | 2.8082 | 
DOMAIN_12896 (protein, listed as Macaca fascicularis) DTVVFEDVVVGFTLEEWALLNPAQRNLYREVMLETFKHLASVDNEAQPKTNGSISQQDTSGEKLSLKQKIEKFTRKHTWAS | 2.0413 | 
DOMAIN_12901 (protein, listed as Macaca fascicularis) MAFEDVAVYFSQEEWGLLDTAQRALYRHVMLENFTLVTSLGLSTSRPHVVIQLERGEEPWVPSGKDMTLARNTYRRLNAGE | 3.5686 | 
DOMAIN_12912 (protein, Puma concolor) LQVSVSFEDVTVNFSREEWQHLDPAQRRLYRDVTLENYSHLRSVGYQVPKPEVIFKLEQGEGPWTLEGETPHQSCSGEDIG | 2.7422 | 
DOMAIN_18563 (protein, listed as Aotus trivirgatus) IQGQVNFEDVFVYFSQEEWVLLDEAQRLLYRDVMLENFALMASLGHTSFTSHTVASLVMGPDWVDVTPAVATGTLSGSGPG |  | Log2 (fold change) [2]: 3.0406
DOMAIN_13121 (protein, listed as Macaca fascicularis) GKELLSFEDVAMYFTREEWGRLDWGQKDLYRDVMLENYRNMVLLGFQFPKPEVICQLENWDEQWILDLPRAGSRKASGSAC | 3.353 | 
DOMAIN_13269 (protein, listed as Desmodus rotundus) LQVSVSFEDVTVDFSREEWQHLDPAQRRLYWDVTLENYSHLLSVGYQVPKPEVILKLEQGEGPWTLEGETPHQSCSDEDIG | 2.7236 | 
DOMAIN_13277 (protein, listed as Macaca fascicularis) MTFEDVSVEFTQGEWGQLNPAQKDLYREVMLENFRNLAFLGLPVSKPYVICQLEEGGEPFIVEREVSTGAYSDWERRSKSK | 2.9151 | 
DOMAIN_13691 (protein, listed as Sapajus apella) AQESVTFEDVAVNFTDREWQCLTYAQRHLYKDVMLENYGNMVSVGFLFPKPPLISHLERGVEPCVQDPQDRESLSCSCLVS |  | Log2 (fold change) [3]: 2.6205
DOMAIN_14082 (protein, Phyllostomus discolor) SPTLVTFKDIHVNFTREEWNLLDAAQQIMYKDVMLENYKNLVSVGHQLPKPDVILQLEKGEEPWLVERGVRQDTRPDWDTA |  | Log2 (fold change) [3]: 3.2495
DOMAIN_14287 (protein, listed as Bos indicus) VQGSVSFEDVAVGFSQEEWQILGPSQKALYWDVMLENYCNLVSVGYQAPTPNSLFQLEQGGPPWTVEGAALSPTCSGKKLY |  | Log2 (fold change) [3]: 3.6232
DOMAIN_14546 (protein, Muntiacus muntjak) GLLSFEDVALYFTREEWDTLDWAQKALYRDVMLDNYRHIVSLGFPFPKPEVICQLEQWEEPWILDLPRAGTRKASGSACPD |  | Log2 (fold change) [3]: 3.5039
DOMAIN_14714 (protein, listed as Odocoileus virginianus) PQESVTFEDVAVNFSYEEWQCLTHAQRHLYTDVMLENYGNMVSLGFSFSKPPLISRLEQGTEPYVQDRQDWEFLNCSYPAA |  | Log2 (fold change) [3]: 3.2752
DOMAIN_14746 (protein, listed as Odocoileus virginianus) VTELLTFKDISVDFTQEEWGQLAPAHRNLYREVMLENYGNLVSVAGCQLSKPSVISQLEKGEEPWMTEKEGAGDPSSDLKS |  | Log2 (fold change) [3]: 2.605
